Blank lines part the entries; values can stand above or below the binder they belong to.
B2: αKlotho^ecto/ΔRBA (soluble αKlotho ectodomain lacking L544 to T565 of the KL2 β1α1 loop) (receptor)
chain: EPGDGAQTWARVSRPPAPEAAGLFQGTFPDGFLWAVGSAAYQTEGGWQQHGKGASIWDTFTHHPLAPPGDSRNASLPLGAPSPLQPATGDVASDSYNNVFRDTEALRELGVTHYRFSISWARVLPNGSAGVPNREGLRYYRRLLERLRELGVQPVVTLYHWDLPQRLQDAYGGWANRALADHFRDYAELCFRHFGGQVKYWITIDNPYVVAWHGYATGRLAPGIRGSPRLGYLVAHNLLLAHAKVWHLYNTSFRPTQGGQVSIALSSHWINPRRMTDHSIKECQKSLDFVLGWFAKPVFIDGDYPESMKNNLSSILPDFTESEKKFIKGTADFFALCFGPTLSFQLLDPHMKFRQLESPNLRQLLSWIDLEFNHPQIFIVENGWFVSGTTKRDDAKYMYYLKKFIMETLKAIKLDGVDVIGYTAWSLMDGFEWHRGYSIRRGLFYVDFLSQDKMLLPKSSALFYQKLIEKNGFPPLPENQPLEGTFPCDFAWGVVDNYIQVDTTLSQFTDKKRKSYCVDFAAIQPQIALLQEMHVTHFRFSLDWALILPLGNQSQVNHTILQYYRCMASELVRVNITPVVALWQPMAPNQGLPRLLARQGAWENPYTALAFAEYARLCFQELGHHVKLWITMNEPYTRNMTYSAGHNLLKAHALAWHVYNEKFRHAQNGKISIALQADWIEPACPFSQKDKEVAERVLEFDIGWLAEPIFGSGDYPWVMRDWLNQRNNFLLPYFTEDEKKLIQGTFDFLALSHYTTILVDSEKEDPIKYNDYLEVQEMTDITWLNSPSQVAVVPWGLRKVLNWLKFKYGDLPMYIISNGIDDGLHAEDDQLRVYYMQNYINEALKAHILDGINLCGYFAYSFNDRTAPRFGLYRYAADQFEPKASMKHYRKIIDSNGFPGPETLERFCPEEFTVCTECSFFHTRKS
notes: the mature protein is E34 to S959; Expressed and purified like the wild type (pEF1α/myc-His A); also called α-Klotho^ecto/deltaRBA; αKlotho^ecto/ΔRBA mutant
B3: Soluble human α-Klotho ectodomain (αKlotho^ecto) (receptor)
chain: EPGDGAQTWARVSRPPAPEAAGLFQGTFPDGFLWAVGSAAYQTEGGWQQHGKGASIWDTFTHHPLAPPGDSRNASLPLGAPSPLQPATGDVASDSYNNVFRDTEALRELGVTHYRFSISWARVLPNGSAGVPNREGLRYYRRLLERLRELGVQPVVTLYHWDLPQRLQDAYGGWANRALADHFRDYAELCFRHFGGQVKYWITIDNPYVVAWHGYATGRLAPGIRGSPRLGYLVAHNLLLAHAKVWHLYNTSFRPTQGGQVSIALSSHWINPRRMTDHSIKECQKSLDFVLGWFAKPVFIDGDYPESMKNNLSSILPDFTESEKKFIKGTADFFALCFGPTLSFQLLDPHMKFRQLESPNLRQLLSWIDLEFNHPQIFIVENGWFVSGTTKRDDAKYMYYLKKFIMETLKAIKLDGVDVIGYTAWSLMDGFEWHRGYSIRRGLFYVDFLSQDKMLLPKSSALFYQKLIEKNGFPPLPENQPLEGTFPCDFAWGVVDNYIQVDTTLSQFTDLNVYLWDVHHSKRLIKVDGVVTKKRKSYCVDFAAIQPQIALLQEMHVTHFRFSLDWALILPLGNQSQVNHTILQYYRCMASELVRVNITPVVALWQPMAPNQGLPRLLARQGAWENPYTALAFAEYARLCFQELGHHVKLWITMNEPYTRNMTYSAGHNLLKAHALAWHVYNEKFRHAQNGKISIALQADWIEPACPFSQKDKEVAERVLEFDIGWLAEPIFGSGDYPWVMRDWLNQRNNFLLPYFTEDEKKLIQGTFDFLALSHYTTILVDSEKEDPIKYNDYLEVQEMTDITWLNSPSQVAVVPWGLRKVLNWLKFKYGDLPMYIISNGIDDGLHAEDDQLRVYYMQNYINEALKAHILDGINLCGYFAYSFNDRTAPRFGLYRYAADQFEPKASMKHYRKIIDSNGFPGPETLERFCPEEFTVCTECSFFHTRKS
notes: also called wild-type αKlotho^ecto; soluble αKlotho

Key:
[1] = target: B3; test: SEC-MALS of a 1:1 mixture, UV280 absorbance and molecular weight against retention time [panel A]
[2] = target: B2; test: as above
[3] = target: T1, FGF23 C-terminal tail peptide (FGF23^C-tail) (human); test: fluorescence dye-based thermal shift assay (SYPRO Orange), 1:1 mixture; over the peak of αKlotho^ecto/ΔRBA alone the sheet prints 51 [right]
T1 construct: The peptide may have been shorter, e.g. S180 to S205
T1 peptide: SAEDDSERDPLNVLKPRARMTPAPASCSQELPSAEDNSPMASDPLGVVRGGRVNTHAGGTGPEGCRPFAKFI
Description: (§1) Fluorescence Dye-Based Thermal Shift Assay: SYPRO Orange dye (#S6650, ThermoFisher Scientific, USA) was used as the fluorescent probe. 15 μl of 20 μM solutions of protein samples (wild-type and mutated forms of FGF23; αKlotho^ecto or αKlotho^{ecto/ΔRBA} alone; 1:1 mixtures of αKlotho^ecto or αKlotho^{ecto/ΔRBA} with FGF23 C-terminal tail peptide) were mixed with 5 μl of working dye solution (1:25 dilution) in duplicate in PCR strips. A temperature gradient from 4° C. to 100° C. at 1° C./minute increment was carried out with a CFX96 Touch™ Real-Time PCR Detection System (Bio-Rad, USA). Fluorescence was recorded as a function of temperature in real time. The melting temperature (Tm) was calculated with StepOne software v2.2 as the maximum of the derivative of the resulting SYPRO Orange fluorescence curves.

[4] = target: T1, FGF23 C-terminal tail peptide …; test: fluorescence dye-based thermal shift assay (SYPRO Orange), 1:1 mixture; over the peak of αKlotho^ecto alone the sheet prints 48 [left]
Description: as §1

binding result [1]: binds
binding result [2]: no binding
B1: FGFR1c^ecto (human FGFR1c ligand-binding domain, D2, D3 and D2-D3 linker) (receptor)
chain: DNTKPNRMPVAPYWTSPEKMEKKLHAVPAAKTVKFKCPSSGTPNPTLRWLKNGKEFKPDHRIGGYKVRYATWSIIMDSVVPSDKGNYTCIVENEYGSINHTYQLDVVERSPHRPILQAGLPANKTVALGSNVEFMCKVYSDPQPHIQWLKHIEVNGSKIGPDNLPYVQILKTAGVNTTDKEMEVLHLRNVSFEDAGEYTCLAGNSIGLSHHSAWLTVLEALEER

Binder: B2
melting temperature (peak of derivative fluorescence) of the mixture [3]: 57.5 °C

Binder: B3
melting temperature (peak of derivative fluorescence) of the mixture [4]: 54 °C

Reference: patent US20210054355A1 (NEW YORK UNIVERSITY, published 2021)
